Target: T1, Bovine serum albumin (bovine, UniProt P02769 25-607)
T1 construct: Serum albumin, bovine (BSA); Unlabelled BSA used as analyte in SPR; also called BSA; source: bought: Sigma-Aldrich
Assay: SPR; BIAcore 3000; histidine-tagged SPARC immobilised on Sensor NTA chip to about 100 RU; BSA as analyte, room temperature, 20 ul/minute, 5 minutes association, 5 minutes dissociation; global Langmuir fitting
Conditions: both partners purified

T1 sequence (P02769 25-607): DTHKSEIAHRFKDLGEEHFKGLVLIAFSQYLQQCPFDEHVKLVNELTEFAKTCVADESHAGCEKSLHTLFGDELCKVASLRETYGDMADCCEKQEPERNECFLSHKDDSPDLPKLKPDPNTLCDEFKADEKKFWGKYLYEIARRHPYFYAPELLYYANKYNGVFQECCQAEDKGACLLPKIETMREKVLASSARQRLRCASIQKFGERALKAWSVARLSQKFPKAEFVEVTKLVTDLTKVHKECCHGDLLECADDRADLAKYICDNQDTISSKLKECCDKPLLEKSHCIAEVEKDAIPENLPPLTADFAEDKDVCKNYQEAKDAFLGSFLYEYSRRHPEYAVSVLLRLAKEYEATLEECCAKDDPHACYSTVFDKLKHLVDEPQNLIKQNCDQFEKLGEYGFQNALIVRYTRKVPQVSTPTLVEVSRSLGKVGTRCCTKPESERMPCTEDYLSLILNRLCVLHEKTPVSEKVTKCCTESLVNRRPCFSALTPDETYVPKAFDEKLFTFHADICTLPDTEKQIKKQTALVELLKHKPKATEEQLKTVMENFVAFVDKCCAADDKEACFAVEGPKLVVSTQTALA

Kd: 18.9 µM
B1: Recombinant human SPARC (secreted protein acidic and rich in cysteine), histidine-tagged (natural protein, UniProt P09486 18-303, looked up)
chain: APQQEALPDETEVVEETVAEVTEVSVGANPVQVEVGEFDDGAEETEEEVVAENPCQNHHCKHGKVCELDENNTPMCVCQDPTSCPAPIGEFEKVCSNDNKTFDSSCHFFATKCTLEGTKKGHKLHLDYIGPCKYIPPCLDSELTEFPLRMRDWLKNVLVTLYERDEDNNLLTEKQKLRVKKIHENEKRLEAGDHPVELLARDFEKNYNMYIFPVHWQFGQLDQHPIDGYLSHTELAPLRAPLIPMEHCTTRFFETCDLDNDKYIALDEWAGCFGIKQKDIDKDLVI
notes: Secreted protein acidic and rich in cysteine (SPARC), human, recombinant; The histidine tag is named for the SPR experiment; also called rhSPARC; histidine-tagged recombinant SPARC; source: HEK293 cells transfected with SPARC, serum-free conditioned media; purified as described [25]

— article PMC5363614, “Secreted protein acidic and rich in cysteine (SPARC) induces lipotoxicity in neuroblastoma by regulating transport of albumin complexed with fatty acids” (Oncotarget, 2016)
